Experiment [1] deals with CLDN18.2 of healthy mouse stomach (mouse) (UniProt P56857). Put plainly: flow cytometry, live cells of healthy mouse stomach, mouse 1, antibody 4 µg/ml.
The target is the same in experiment [2]. Description: flow cytometry, live cells of healthy mouse stomach, average of two mice.
The target is the same in experiment [3]. Put plainly: flow cytometry, live cells of healthy mouse stomach, mouse 2, antibody 4 µg/ml.

B1: cCl1-1 (antibody, V domains shown)
VH: QIQLVQSGPELKKPGESVKISCKASGYTFTDYAMHWVKQAPGKGLKWMGWINTYTGKPTYADDFKGRFVFSLEASASTANLQISNLKNEDTATYFCARAVFYGYTMDAWGQGTSVTVSS
VL: DIQMTQSPASLSASLGETISIACRASEDIYSNLAWYQQKSGKSPQLLIFSVKRLQDGVPSRFSGSGSGTQYSLKISGMQPEDEGDYFCLQGSNFPLTFGSGTKLEIK
Take B1: the values for the % of positive healthy stomach cells in experiment [1], in experiment [2] and in experiment [3] were 0.4%, 0.35% and 0.3%, respectively.

(Values after patent US20240100180A1.)
